Bridges are numbered along the chain shown (N, C = ends).
Assays:
pig serum albumin = molecular target: T1, pig serum albumin (pig, UniProt P08835); experiment: FP, pH 6.2, no NaCl
T1 chain: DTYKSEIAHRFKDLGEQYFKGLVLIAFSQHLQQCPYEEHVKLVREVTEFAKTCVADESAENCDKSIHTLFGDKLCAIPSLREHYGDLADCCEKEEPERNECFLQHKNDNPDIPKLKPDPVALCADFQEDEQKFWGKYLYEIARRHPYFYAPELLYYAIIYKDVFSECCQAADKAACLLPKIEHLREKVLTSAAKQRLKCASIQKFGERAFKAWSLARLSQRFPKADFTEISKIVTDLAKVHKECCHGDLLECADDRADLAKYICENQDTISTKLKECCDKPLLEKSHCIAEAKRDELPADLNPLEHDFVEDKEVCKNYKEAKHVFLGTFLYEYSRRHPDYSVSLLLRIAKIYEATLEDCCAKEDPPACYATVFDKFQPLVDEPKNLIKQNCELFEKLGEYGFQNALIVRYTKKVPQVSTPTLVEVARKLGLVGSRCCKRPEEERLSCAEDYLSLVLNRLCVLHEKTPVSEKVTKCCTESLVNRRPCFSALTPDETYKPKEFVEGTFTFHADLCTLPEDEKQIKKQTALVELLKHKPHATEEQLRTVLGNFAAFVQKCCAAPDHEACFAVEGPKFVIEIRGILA

rabbit serum albumin = molecular target: T2, rabbit serum albumin (rabbit, UniProt P49065); experiment: FP, pH 6.2, no NaCl
T2 chain: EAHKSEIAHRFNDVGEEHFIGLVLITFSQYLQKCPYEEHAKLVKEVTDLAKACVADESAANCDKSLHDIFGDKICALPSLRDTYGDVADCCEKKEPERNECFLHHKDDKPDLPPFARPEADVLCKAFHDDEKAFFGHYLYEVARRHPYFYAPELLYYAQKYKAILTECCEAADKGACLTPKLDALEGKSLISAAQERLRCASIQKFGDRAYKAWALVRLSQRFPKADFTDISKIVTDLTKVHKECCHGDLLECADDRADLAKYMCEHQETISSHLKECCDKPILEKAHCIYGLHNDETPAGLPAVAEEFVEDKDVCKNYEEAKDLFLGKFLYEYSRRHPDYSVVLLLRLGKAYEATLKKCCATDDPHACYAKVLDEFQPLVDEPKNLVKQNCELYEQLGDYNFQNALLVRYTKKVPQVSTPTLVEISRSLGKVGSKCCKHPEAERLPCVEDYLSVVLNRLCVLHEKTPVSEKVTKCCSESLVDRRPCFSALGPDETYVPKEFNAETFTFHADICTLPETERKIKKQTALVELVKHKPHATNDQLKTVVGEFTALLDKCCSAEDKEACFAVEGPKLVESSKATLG

chicken ovalbumin [1] = molecular target: T3, chicken ovalbumin (chicken, UniProt P01012); experiment: FP, pH 6.2, no NaCl
T3 chain: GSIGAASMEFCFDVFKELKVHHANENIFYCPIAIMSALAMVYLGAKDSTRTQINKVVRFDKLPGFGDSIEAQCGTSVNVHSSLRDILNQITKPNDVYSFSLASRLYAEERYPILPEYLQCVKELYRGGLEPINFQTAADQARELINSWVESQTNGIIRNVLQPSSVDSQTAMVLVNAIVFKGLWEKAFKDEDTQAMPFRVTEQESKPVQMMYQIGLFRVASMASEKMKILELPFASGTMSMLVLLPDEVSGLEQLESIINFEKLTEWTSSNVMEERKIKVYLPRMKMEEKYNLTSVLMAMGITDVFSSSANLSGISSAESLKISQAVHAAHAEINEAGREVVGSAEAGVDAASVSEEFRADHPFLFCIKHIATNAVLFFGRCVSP

chicken ovalbumin [2] = molecular target: T3, chicken ovalbumin; experiment: FP, PBS pH 7.4

B1: DX-236 (peptide)
chain: Ac-AEGTGDFWFCDRIAWYPQHLCEFLDPEGGGK(fluorescein)-NH2
modifications: disulfide 10-21 (inferred)
Kd (pig serum albumin): 500 nM
Kd (rabbit serum albumin): 500 nM
Kd (chicken ovalbumin [1]): > 200000 nM
Kd (chicken ovalbumin [2]): > 200000 nM

Reference: patent US7211395 (dated 2007)
